Laboratory results published in article PMC5349899 (Oncotarget, 2016).

T1: TGF-β2
T1 sequence (P61812 303-414, species assumed, looked up): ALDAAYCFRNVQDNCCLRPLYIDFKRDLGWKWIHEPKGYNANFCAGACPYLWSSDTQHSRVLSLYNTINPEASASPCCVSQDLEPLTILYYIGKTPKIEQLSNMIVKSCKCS

B1: trivalent TGF-β receptor trap RER (RII-BGE-RII) (other)
chain: NGAVKFPQLCKFCDVRFSTCDNQKSCMSNCSITSICEKPQEVCVAVWRKNDENITLETVCHDPKLPYHDFILEDAASPKCIMKEKKKPGETFFMCSCSSDECNDNIIFSEEYNTSNPDGPEPSTRCELSPINASHPVQALMESFTVLSGCASRGTTGLPREVHVLNLRSTDQGPGQRQREVTLHLNPIASVHTHHKPIVFLLNSPQPLVWHLKTERLAAGVPRLFLVSEGSVVQFPSGNFSLTAETEERNFPQENEHLLRWAQKEYGAVTSFTELKIARNIYIKVGEDQVFPPTCNIGKNFLSLNYLAEYLQPKAAEGCVLPSQPHEKEVHIIELITPSSNPYSAFQVDIIVDIRPAQEDPEVVKNLVLILKCKKSVNWVIKSFDVKGNLKVIAPNSIGFGKESERSMTMTKLVRDDIPSTQENLMKWALDNGYRPVTSYTMAPVANRFHLRLENNEEMRDEEVHTIPPELRILLDPDNGAVKFPQLCKFCDVRFSTCDNQKSCMSNCSITSICEKPQEVCVAVWRKNDENITLETVCHDPKLPYHDFILEDAASPKCIMKEKKKPGETFFMCSCSSDECNDNIIFSEEYNTSNPD
modifications: N-linked glycans (as isolated, glycosylated)
B2: bivalent TGF-β receptor trap ER (BGE-RII) (other)
chain: GPEPSTRCELSPINASHPVQALMESFTVLSGCASRGTTGLPREVHVLNLRSTDQGPGQRQREVTLHLNPIASVHTHHKPIVFLLNSPQPLVWHLKTERLAAGVPRLFLVSEGSVVQFPSGNFSLTAETEERNFPQENEHLLRWAQKEYGAVTSFTELKIARNIYIKVGEDQVFPPTCNIGKNFLSLNYLAEYLQPKAAEGCVLPSQPHEKEVHIIELITPSSNPYSAFQVDIIVDIRPAQEDPEVVKNLVLILKCKKSVNWVIKSFDVKGNLKVIAPNSIGFGKESERSMTMTKLVRDDIPSTQENLMKWALDNGYRPVTSYTMAPVANRFHLRLENNEEMRDEEVHTIPPELRILLDPDNGAVKFPQLCKFCDVRFSTCDNQKSCMSNCSITSICEKPQEVCVAVWRKNDENITLETVCHDPKLPYHDFILEDAASPKCIMKEKKKPGETFFMCSCSSDECNDNIIFSEEYNTSNPD
modifications: N-linked glycans (as isolated, glycosylated)

Molecular target: T1, TGF-β2
Assay: cell-based or functional assay

Binder	IC50 of inhibition of PAI-1 luciferase reporter activity in Mv1Lu mink lung epithelial cells induced with 20 pM TGF-β2 [pM]
B1	70
B2	1200
